The record followed here is patent publication US6921641.

Series [1] deals with T1, Escherichia coli UvrB protein.
T1 chain: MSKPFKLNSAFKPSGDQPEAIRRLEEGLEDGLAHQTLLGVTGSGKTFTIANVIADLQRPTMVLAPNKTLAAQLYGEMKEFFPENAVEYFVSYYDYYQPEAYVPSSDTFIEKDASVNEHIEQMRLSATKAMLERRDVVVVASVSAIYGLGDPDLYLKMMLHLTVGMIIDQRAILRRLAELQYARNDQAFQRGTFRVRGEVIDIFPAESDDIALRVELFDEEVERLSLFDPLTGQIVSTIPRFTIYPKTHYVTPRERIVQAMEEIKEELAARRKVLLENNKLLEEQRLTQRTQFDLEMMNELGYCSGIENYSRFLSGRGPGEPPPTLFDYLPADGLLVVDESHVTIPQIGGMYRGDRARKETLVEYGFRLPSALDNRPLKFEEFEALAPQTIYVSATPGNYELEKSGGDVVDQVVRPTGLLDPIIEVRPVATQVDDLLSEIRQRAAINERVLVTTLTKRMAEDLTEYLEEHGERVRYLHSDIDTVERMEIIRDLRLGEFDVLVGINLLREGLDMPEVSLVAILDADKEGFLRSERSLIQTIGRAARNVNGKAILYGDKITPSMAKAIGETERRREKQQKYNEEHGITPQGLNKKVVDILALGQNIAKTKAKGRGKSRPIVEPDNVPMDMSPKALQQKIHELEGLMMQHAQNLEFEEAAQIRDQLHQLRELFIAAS

The target in series [2] is T2, Bacillus caldotenax (Bca) UvrA protein.
T2 chain: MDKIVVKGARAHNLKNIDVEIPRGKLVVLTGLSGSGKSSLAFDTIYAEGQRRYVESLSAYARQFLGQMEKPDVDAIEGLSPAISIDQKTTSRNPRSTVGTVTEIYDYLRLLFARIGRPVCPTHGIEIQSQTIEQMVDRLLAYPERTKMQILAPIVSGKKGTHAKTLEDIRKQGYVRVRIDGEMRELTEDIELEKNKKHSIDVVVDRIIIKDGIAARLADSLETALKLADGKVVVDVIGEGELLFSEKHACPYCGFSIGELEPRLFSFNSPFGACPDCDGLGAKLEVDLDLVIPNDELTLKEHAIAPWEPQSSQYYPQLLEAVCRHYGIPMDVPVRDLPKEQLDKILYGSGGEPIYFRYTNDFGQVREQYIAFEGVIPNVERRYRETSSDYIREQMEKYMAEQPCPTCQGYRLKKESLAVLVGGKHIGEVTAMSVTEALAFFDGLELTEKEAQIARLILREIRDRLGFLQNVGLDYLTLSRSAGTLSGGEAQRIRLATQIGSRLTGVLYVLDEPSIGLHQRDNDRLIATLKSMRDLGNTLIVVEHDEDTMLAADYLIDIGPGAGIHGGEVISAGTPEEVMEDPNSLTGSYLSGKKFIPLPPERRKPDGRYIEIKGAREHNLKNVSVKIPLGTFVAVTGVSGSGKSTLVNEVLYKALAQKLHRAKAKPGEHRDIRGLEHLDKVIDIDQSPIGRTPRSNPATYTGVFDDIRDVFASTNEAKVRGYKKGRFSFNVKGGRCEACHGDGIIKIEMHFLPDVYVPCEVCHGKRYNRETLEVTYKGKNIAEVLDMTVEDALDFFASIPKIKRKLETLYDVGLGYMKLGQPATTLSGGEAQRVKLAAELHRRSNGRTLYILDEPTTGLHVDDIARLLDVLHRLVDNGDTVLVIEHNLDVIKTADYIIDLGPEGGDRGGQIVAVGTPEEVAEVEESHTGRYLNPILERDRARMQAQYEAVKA

B1: Bacillus caldotenax (Bca) UvrA protein (protein)
chain: MDKIVVKGARAHNLKNIDVEIPRGKLVVLTGLSGSGKSSLAFDTIYAEGQRRYVESLSAYARQFLGQMEKPDVDAIEGLSPAISIDQKTTSRNPRSTVGTVTEIYDYLRLLFARIGRPVCPTHGIEIQSQTIEQMVDRLLAYPERTKMQILAPIVSGKKGTHAKTLEDIRKQGYVRVRIDGEMRELTEDIELEKNKKHSIDVVVDRIIIKDGIAARLADSLETALKLADGKVVVDVIGEGELLFSEKHACPYCGFSIGELEPRLFSFNSPFGACPDCDGLGAKLEVDLDLVIPNDELTLKEHAIAPWEPQSSQYYPQLLEAVCRHYGIPMDVPVRDLPKEQLDKILYGSGGEPIYFRYTNDFGQVREQYIAFEGVIPNVERRYRETSSDYIREQMEKYMAEQPCPTCQGYRLKKESLAVLVGGKHIGEVTAMSVTEALAFFDGLELTEKEAQIARLILREIRDRLGFLQNVGLDYLTLSRSAGTLSGGEAQRIRLATQIGSRLTGVLYVLDEPSIGLHQRDNDRLIATLKSMRDLGNTLIVVEHDEDTMLAADYLIDIGPGAGIHGGEVISAGTPEEVMEDPNSLTGSYLSGKKFIPLPPERRKPDGRYIEIKGAREHNLKNVSVKIPLGTFVAVTGVSGSGKSTLVNEVLYKALAQKLHRAKAKPGEHRDIRGLEHLDKVIDIDQSPIGRTPRSNPATYTGVFDDIRDVFASTNEAKVRGYKKGRFSFNVKGGRCEACHGDGIIKIEMHFLPDVYVPCEVCHGKRYNRETLEVTYKGKNIAEVLDMTVEDALDFFASIPKIKRKLETLYDVGLGYMKLGQPATTLSGGEAQRVKLAAELHRRSNGRTLYILDEPTTGLHVDDIARLLDVLHRLVDNGDTVLVIEHNLDVIKTADYIIDLGPEGGDRGGQIVAVGTPEEVAEVEESHTGRYLNPILERDRARMQAQYEAVKA
With B1, in series [1], the “DNA substrate bound in the form of UvrB-DNA complex (gel mobility shift, Eco UvrB at 100 nM)” value is reported as “more than 50% of the DNA substrate bound in the form of UvrB-DNA complex” and the “DNA substrate bound in the form of UvrB-DNA complex (gel mobility shift, Eco UvrB at 250 nM)” value is recorded as “all the BPDE-containing substrate is bound as the UvrB-DNA complex”.

B2: β-hairpin deletion mutant of the B. caldotenax UvrB protein (Δβh UvrB) (protein)
chain: VEGRFQLVAPYEPQGDQPQAIAKLVDGLRRGVKHQTLLGATGTGKTFTISNVIAQVNKPTLVIAHNKTLAGQLYSELKEFFPHNAVEYFVSYYDYYGAKINDEIDKLRHSATSALFERRDVIIVASVSCIYGLGSPEEYRELVVSLRVGMEIERNALLRRLVDIQYDRNDIDFRRGTFRVRGDVVEIFPASRDEHCIRVEFFGDEIERIREVDALTGEVLGEREHVAIFPASHFVTREEKMRLAIQNIEQELEERLAELRAQGKLLEAQRLEQRTRYDLEMMREMGFCSGIENYSRHLALRPPGSTPYTLLDYFPDDFLIIVDESHVTLPQLRGMYNGDRARKQVLVDHGFRLPSALDNRPLTFEEFEQKINQIIYVSATPGPYELEHSPGVVEQIIRPTGLLDPTIDVRPTKGQIDDLIGEIRERVERNERTLVTTLTKKMAEDLTDYLKEAGIKVAYLHSEIKTLERIEIIRDLRLGKYDVLVGINLLREGLDIPEVSLVAILDADKEGFLRSERSLIQTIGRAARNANGHVIMYADTITKSMEIAIQETKRRRAIQEEYNRKHGIVPRTVKKEIRDVIRATYAAEETEMYEAKPAAAMTKQEREELIRTLEAEMKEAAKALDFERAAQLRDIIFELKAEG
With B2, in series [2], the ATPase activity (UvrA + Δβh UvrB + UV-DNA) (mol of ATP hydrolyzed/mol of protein/min) is 29 and the ATPase activity (UvrA + Δβh UvrB) (mol of ATP hydrolyzed/mol of protein/min) was 19.

B3: Bacillus caldotenax (Bca) UvrB protein, wild type (protein)
chain: VEGRFQLVAPYEPQGDQPQAIAKLVDGLRRGVKHQTLLGATGTGKTFTISNVIAQVNKPTLVIAHNKTLAGQLYSELKEFFPHNAVEYFVSYYDYYQPEAYVPQTDTYIEKDAKINDEIDKLRHSATSALFERRDVIIVASVSCIYGLGSPEEYRELVVSLRVGMEIERNALLRRLVDIQYDRNDIDFRRGTFRVRGDVVEIFPASRDEHCIRVEFFGDEIERIREVDALTGEVLGEREHVAIFPASHFVTREEKMRLAIQNIEQELEERLAELRAQGKLLEAQRLEQRTRYDLEMMREMGFCSGIENYSRHLALRPPGSTPYTLLDYFPDDFLIIVDESHVTLPQLRGMYNGDRARKQVLVDHGFRLPSALDNRPLTFEEFEQKINQIIYVSATPGPYELEHSPGVVEQIIRPTGLLDPTIDVRPTKGQIDDLIGEIRERVERNERTLVTTLTKKMAEDLTDYLKEAGIKVAYLHSEIKTLERIEIIRDLRLGKYDVLVGINLLREGLDIPEVSLVAILDADKEGFLRSERSLIQTIGRAARNANGHVIMYADTITKSMEIAIQETKRRRAIQEEYNRKHGIVPRTVKKEIRDVIRATYAAEETEMYEAKPAAAMTKQEREELIRTLEAEMKEAAKALDFERAAQLRDIIFELKAEG
Regarding B3, in series [2], the ATPase activity (UvrA + UvrB + UV-DNA) (mol of ATP hydrolyzed/mol of protein/min) worked out at 22 and the ATPase activity (UvrA + UvrB) (mol of ATP hydrolyzed/mol of protein/min) stood at 18.3.
